The record followed here is PMC8313695.

The target in this assay is p-ERK1/2 (Thr202/Tyr204). Put plainly: co-IP (IP: Flag, IB: p-ERK1/2), band intensity quantified in bar chart. The note with it: whole-cell extracts from MCF-7C5RN cells; without CGP57380; parent: est. 0.24; read off a plot.

For the substance “Flag-WTAP (wild type) (from UniProt Q15007) S341A”, the response came out at 0.11.
